According to PMC8748511 (Nature Communications, 2022):

Biological target: SARS-CoV-2 spike receptor binding domain (RBD) (SARS-CoV-2, founder (Wuhan-Hu-1) …, UniProt P0DTC2, amine-PEG3-biotin attached with sortase A at the C-terminal sortase motif (for SPR))

Binder | binding result
H5 (VHH) VHH: QVQLVESGGGLVQPGGSLRLSCAASGVTLDDYAIGWFRQAPGKEREGVSFITSSDGSTFYVDSVKGRFTIARDNAKNTVYLQMNALTPEDTAVYYCAVGPSFSSTGSTYYRSELPWDYDYWGQGTQVTVSS | binds
H11 (VHH) VHH: QVQLVESGGGLVQPGGSLRLSCAASGLTLDDYAIGWFRQAPGKEREGVSFITSSDGSTYYVDSVKGRFTISRDNAKNTVYLQMNSLTPEDTAVYYCAVGPSFSYTGSTYYRSTLPWDYDYWGQGTQVTVSS | binds
H6 (VHH) VHH: QVQLVESGGGLVQPGGSLRLSCAASGFTLDDYAIGWFRQAPGKEREGVSFITSSDGSTYYVDSVKGRFTISRDNAKNTVYLQMNSLTPEDTAVYYCAVGPSFSYTGSTYYRSVLPWDYDYWGQGTQVTVSS | binds
H8 (VHH) VHH: QVQLVESGGGLVQPGGSLRLSCAASGFTLDDYAIGWFRQAPGKEREGISFITSSDGSTYYVDSVKGRFTISRDNAKNTVYLQMNDLTPEDTAVYYCAVGPSFSYTGSTYYRSELPWDYDYWGQGTQVTVSS | binds
H10 (VHH) VHH: QVQLVESGGGLVQPGGSLRLSCAASGFTLDDYAIGWFRQAPGKEREGVSFITSSDGSTYYVDSVKGRFAISRDNAKNTVYLQMNSLTPEDTAVYYCAVGPSFSRTGSTYYRSVLPWDYDYWGQGTQVTVSS | binds
H7 (VHH) VHH: QVQLVESGGGLVQPGGSLRLSCAASGFTLDDYAIGWFRQAPGKEREGVSFITSSDGSTYYVASVKGRFTISRDNAKNTVYLQMNDLTPEDTAVYYCAVGPSFSYTGSTYYRSELPWDYDYWGQGTQVTVSS | binds
H9 (VHH) VHH: QVQLVESGGGLVQPGGSLRLSCAASGFTLDDYAIAWFRQAPGKEREGVSFITSSDGSTYYVDSVKGRFTISRDNAKNTVYLQMNDLTPEDTAVYYCAVGPSFSYTGSTYYRSELPWDYDYWGQGTQVTVSS | binds
